Reference: article PMC11742427, “Structural basis for metal ion transport by the human SLC11 proteins DMT1 and NRAMP1” (Nature Communications, 2025)

T1: human DMT1 (SLC11A2) (human, UniProt P49281-3 2-590, chemically biotinylated (EZ-Link NHS-PEG4-Biotinylation kit) for the SPR experiments)
T1 construct: human DMT1 (SLC11A2), UniProt P49281-3; Tags follow an HRV-3C site and were removed with HRV 3C protease; The same construct was used without biotin for the SEC of the complexes; source: HEK293S GnTI- cells, transient transfection, purified in DDM/CHS (StrepTactin, SEC); not shown: Myc, C-terminal, cleaved
T1 sequence: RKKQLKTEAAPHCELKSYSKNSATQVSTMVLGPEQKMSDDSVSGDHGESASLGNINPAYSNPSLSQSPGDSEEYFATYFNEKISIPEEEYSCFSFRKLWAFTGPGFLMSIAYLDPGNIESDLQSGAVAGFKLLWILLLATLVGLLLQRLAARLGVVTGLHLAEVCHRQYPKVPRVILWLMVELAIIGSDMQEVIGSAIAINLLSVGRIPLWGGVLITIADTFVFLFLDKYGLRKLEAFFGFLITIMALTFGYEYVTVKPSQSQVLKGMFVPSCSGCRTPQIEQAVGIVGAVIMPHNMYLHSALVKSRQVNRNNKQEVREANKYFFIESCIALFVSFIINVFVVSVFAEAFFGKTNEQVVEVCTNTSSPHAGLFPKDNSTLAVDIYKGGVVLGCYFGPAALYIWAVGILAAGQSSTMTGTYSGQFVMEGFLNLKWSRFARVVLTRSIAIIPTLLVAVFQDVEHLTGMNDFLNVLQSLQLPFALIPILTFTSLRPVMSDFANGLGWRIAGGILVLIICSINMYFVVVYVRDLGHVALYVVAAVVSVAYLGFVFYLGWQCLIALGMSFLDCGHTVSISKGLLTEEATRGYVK


Key:
[1] = target: T1, human DMT1 (SLC11A2); assay: SPR; chemically biotinylated DMT1 or NRAMP1 immobilised on a SAD200M chip (about 900 RU); sybodies injected at 7.8-500 nM, 10 °C, 30 µl/min; 10 mM HEPES pH 7.4, 150 mM NaCl, 0.04% DDM, 0.004% CHS, 0.1% BSA; fit to a 1:1 binding model; settings: both partners purified
[2] = target: T2, human DMT1 (SLC11A2) (Homo sapiens, DMT1 isoform 3 (P49281-3), UniProt P49281-3, chemically biotinylated (EZ-Link NHS-PEG4-Biotinylation kit) for the SPR assay; not for cryo-EM); assay: SPR; chemically biotinylated DMT1 or NRAMP1 immobilised on a SAD200M chip (~900 RU); sybodies injected at 7.8-500 nM, 10 °C, 30 µl/min; 10 mM HEPES pH 7.4, 150 mM NaCl, 0.04% DDM, 0.004% CHS, 0.1% BSA; single-site binding model; settings: both partners purified
T2 construct: human DMT1 (SLC11A2), UniProt identifier P49281-3, codon-optimised synthetic gene in pcDXC3MS; The C-terminal HRV-3C site was cut, so residues of the cleavage site are left on the C-terminus; One construct was used for SPR (biotinylated, immobilised) and cryo-EM; source: HEK293S GnTI- cells, transient transfection, purified in DDM/CHS (StrepTactin, HRV 3C cleavage, SEC); not shown: Myc, …

Row | Kd [1] [nM] | Kd [2] [nM] | Binder
1 | 55 |  | sybody Sb1^DMT1 (VHH, synthetic nanobody (sybody) selected against DMT1; the tags are surmised from the vector) VHH: QVQLVESGGGLVQAGGSLRLSCAASGFPVSRSEMYWYRQAPGKEREWVAAIHSIGWNTRYADSVKGRFTISRDNAKNTVYLQMNSLKPEDTAVYYCNVKDAGWFWTNYDYWGQGTQVTVSA
2 |  | ~50 | Sb1^DMT1 (sybody, synthetic nanobody selected against DMT1) (VHH, Selected from synthetic nanobody (sybody) libraries; The sybody model PDB 7P5V was only the starting model for building Sb1, not Sb1 itself) VHH: QVQLVESGGGLVQAGGSLRLSCAASGFPVSRSEMYWYRQAPGKEREWVAAIHSIGWNTRYADSVKGRFTISRDNAKNTVYLQMNSLKPEDTAVYYCNVKDAGWFWTNYDYWGQGTQVTVSA
3 | 48 |  | sybody Sb2^DMT1 (VHH, synthetic nanobody (sybody) selected against DMT1; the tags are surmised from the vector; Not resolved in the maps of PDB 9F6N and 9F6O) VHH: QVQLVESGGGLVQAGGSLRLSCAASGFPVNAAWMHWYRQAPGKEREWVAAIRSAGHLTEYADSVKGRFTISRDNAKNTVYLQMNNLKPEDTAVYYCWVYVGESYHGQGTQVTVSA
